# Measurements: PMC4148193, “Chromatin Insulator Factors Involved in Long-Range DNA Interactions and Their Role in the Folding of the Drosophila Genome” (PLoS Genetics, 2014)
# B1: DNAS (dsDNA)
# DNA 1: AGAAGTCAGCGCGATAGCATCGATATTTTCGTGACACGCTTGTCATCCGATAGGTAGT
# DNA 2: ACTACCTATCGGATGACAAGCGTGTCACGAAAATATCGATGCTATCGCGCTGACTTCT
# What was measured:
# BEAF32 (BEAF32B) = target: T1, BEAF32 (BEAF32B) (Drosophila, UniProt Q94513 1-282); experiment: fluorescence anisotropy; Hill n=3±0.4; 20 uM ZnSO4; FA/FCS: 30 mM Tris/HCl pH 7.5, 100 mM NaCl, 20 uM ZnSO4, 5 mM mercaptoethanol, 0.01 mg/ml BSA, 0.004% Tween20, 2.5 nM DNA; EMSA: 150 mM NaCl, 30 mM Tris/HCl pH; settings: protein: recombinant; tags: N-term MBP; C-term 6xHis; blunt
# T1 sequence: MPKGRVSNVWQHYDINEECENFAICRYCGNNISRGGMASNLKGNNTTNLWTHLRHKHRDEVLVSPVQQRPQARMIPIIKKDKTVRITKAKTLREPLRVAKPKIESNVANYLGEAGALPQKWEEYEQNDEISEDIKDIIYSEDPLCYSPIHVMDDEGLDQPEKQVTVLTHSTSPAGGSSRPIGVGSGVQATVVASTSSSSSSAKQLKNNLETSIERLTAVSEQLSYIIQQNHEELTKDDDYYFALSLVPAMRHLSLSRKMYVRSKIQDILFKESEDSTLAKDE
# CP190-C = target: T2, CP190-C (Drosophila, UniProt Q24478 599-1096); experiment: FCS; 50 nM; FA/FCS: 30 mM Tris/HCl pH 7.5, 100 mM NaCl, 20 uM ZnSO4, 5 mM mercaptoethanol, 0.01 mg/ml BSA, 0.004% Tween20, 2.5 nM DNA; EMSA: 150 mM NaCl, 30 mM Tris/HCl pH; settings: protein: recombinant; tags: N-term 6xHis; blunt
# T2 sequence: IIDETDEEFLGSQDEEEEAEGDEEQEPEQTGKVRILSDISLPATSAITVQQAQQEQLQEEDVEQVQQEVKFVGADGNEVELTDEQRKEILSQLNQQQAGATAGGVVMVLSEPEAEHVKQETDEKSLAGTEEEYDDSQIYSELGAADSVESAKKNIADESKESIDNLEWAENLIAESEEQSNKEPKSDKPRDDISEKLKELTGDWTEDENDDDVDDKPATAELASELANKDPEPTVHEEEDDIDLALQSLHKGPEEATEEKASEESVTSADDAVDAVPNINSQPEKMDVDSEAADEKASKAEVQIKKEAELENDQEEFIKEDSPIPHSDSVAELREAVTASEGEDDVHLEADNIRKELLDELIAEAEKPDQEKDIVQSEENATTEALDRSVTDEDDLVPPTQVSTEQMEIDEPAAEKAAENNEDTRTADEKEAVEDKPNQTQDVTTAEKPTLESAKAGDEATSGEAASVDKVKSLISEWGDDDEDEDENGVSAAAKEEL
# Chromator = target: T3, Chromator (Drosophila, UniProt Q86BS3 1-926); experiment: fluorescence anisotropy; Hill n=2±0.2; 20 uM ZnSO4; FA/FCS: 30 mM Tris/HCl pH 7.5, 100 mM NaCl, 20 uM ZnSO4, 5 mM mercaptoethanol, 0.01 mg/ml BSA, 0.004% Tween20, 2.5 nM DNA; EMSA: 150 mM NaCl, 30 mM Tris/HCl pH; settings: protein: recombinant; tags: N-term 6xHis; blunt
# T3 sequence: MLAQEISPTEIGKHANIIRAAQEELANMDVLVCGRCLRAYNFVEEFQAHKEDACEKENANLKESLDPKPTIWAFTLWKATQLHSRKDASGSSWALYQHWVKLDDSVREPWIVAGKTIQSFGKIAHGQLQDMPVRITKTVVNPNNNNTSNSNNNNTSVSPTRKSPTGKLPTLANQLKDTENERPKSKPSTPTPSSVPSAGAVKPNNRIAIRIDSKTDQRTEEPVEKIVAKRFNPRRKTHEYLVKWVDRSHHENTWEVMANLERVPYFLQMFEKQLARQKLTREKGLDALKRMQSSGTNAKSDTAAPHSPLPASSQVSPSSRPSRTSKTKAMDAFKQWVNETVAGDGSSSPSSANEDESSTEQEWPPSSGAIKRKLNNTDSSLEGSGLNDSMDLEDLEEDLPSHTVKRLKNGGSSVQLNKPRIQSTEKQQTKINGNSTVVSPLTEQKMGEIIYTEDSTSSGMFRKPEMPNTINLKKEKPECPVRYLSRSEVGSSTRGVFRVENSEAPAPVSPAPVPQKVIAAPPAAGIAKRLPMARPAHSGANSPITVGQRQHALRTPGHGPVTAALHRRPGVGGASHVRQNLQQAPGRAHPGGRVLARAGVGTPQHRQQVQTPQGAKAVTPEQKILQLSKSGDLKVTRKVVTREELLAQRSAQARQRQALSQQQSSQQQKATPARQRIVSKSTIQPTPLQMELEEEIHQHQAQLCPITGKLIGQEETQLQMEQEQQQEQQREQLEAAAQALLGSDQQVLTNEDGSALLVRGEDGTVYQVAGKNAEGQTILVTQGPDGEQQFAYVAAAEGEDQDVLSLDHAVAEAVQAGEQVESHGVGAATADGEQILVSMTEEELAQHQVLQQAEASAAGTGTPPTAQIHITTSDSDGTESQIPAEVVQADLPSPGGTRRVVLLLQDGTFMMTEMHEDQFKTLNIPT
binder,measurement,setting,value
B1,Kd,BEAF32 (BEAF32B),68 ± 5 nM
same,binding result,CP190-C,no binding
same,Kd,Chromator,360 ± 30 nM
